Reference: patent US20210388087A1 (Chugai, published 2021)
Changes are numbered by the printed parent chain. Each block holds one binder with its values, some of them ahead of it.

Biological target: T1, CD3 epsilon homodimer protein (UniProt P07766 23-126)
T1 construct: also called CD3 (CD3 epsilon)
Assay: SPR, CD3 epsilon homodimer on chip, one-arm antibody as analyte;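 also: surface plasmon resonance at 25 °C with CD3 epsilon homodimer amine-coupled to a CM4 sensor chip, antibody injected as analyte, HBS-EP+ as running buffer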
Protocol: An appropriate amount of CD3 epsilon homodimer protein was immobilized onto Sensor chip CM4 (GE Healthcare Japan Corp.) by the amine coupling method. Then, the antibody having an appropriate concentration was injected thereto as an analyte and allowed to interact with the CD3 epsilon homodimer protein on the sensor chip. Then, the sensor chip was regenerated by the injection of 10 mmol/L glycine-HCl (pH 1.5). The assay was conducted at 25 degrees C., and HBS-EP+(GE Healthcare Japan Corp.) was used as a running buffer. […] Each parameter was calculated using Biacore T200 Evaluation Software (GE Healthcare Japan Corp.).

T1 sequence (P07766 23-126): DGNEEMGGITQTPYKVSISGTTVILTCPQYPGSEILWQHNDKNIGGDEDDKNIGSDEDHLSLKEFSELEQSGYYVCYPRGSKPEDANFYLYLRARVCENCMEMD

KD ratio (KD of CE115HA000/KD of altered form): 6.25
B2: CE115HA000 G100bD (antibody, human IgG1, kappa, L234A L235A, N297A, name in Kabat numbering)
heavy: QVQLVESGGGVVQPGRSLRLSCAASGFTFSNAWMHWVRQAPGKGLEWVAQIKAKSNNYATYYAESVKGRFTISRDDSKNSLYLQMNSLKTEDTAVYYCRYVHYGAYYDVDAWGQGTTVTVSSASTKGPSVFPLAPSSKSTSGGTAALGCLVKDYFPEPVTVSWNSGALTSGVHTFPAVLQSSGLYSLSSVVTVPSSSLGTQTYICNVNHKPSNTKVDKKVEPKSCDKTHTCPPCPAPEAAGGPSVFLFPPKPKDTLMISRTPEVTCVVVDVSHEDPEVKFNWYVDGVEVHNAKTKPREEQYASTYRVVSVLTVLHQDWLNGKEYKCKVSNKALPAPIEKTISKAKGQPREPQVYTLPPSRCELTKNQVSLSCAVKGFYPSDIAVEWESNGQPENNYKTTPPVLDSDGSFFLVSKLTVDKSRWQQGNVFSCSVMHEALHNHYTQKSLSLSPDYKDDDDK
chain: EPKSSDKTHTCPPCPAPELLGGPSVFLFPPKPKDTLMISRTPEVTCVVVDVSHEDPEVKFNWYVDGVEVHNAKTKPREEQYNSTYRVVSVLTVLHQDWLNGKEYKCKVSNKALPAPIEKTISKAKGQPREPQVCTLPPSRDELTKNQVSLWCLVKGFYPSDIAVEWESNGQPENNYKTTPPVLDSDGSFFLYSKLTVDKSRWQQGNVFSCSVMHEALHNRYTQKSLSLSP
light: DIVMTQSPLSLPVTPGEPASISCRSSQSLVHSNRNTYLHWYQQKPGQAPRLLIYKVSNRFSGVPDRFSGSGSGTDFTLKISRVEAEDVGVYYCGQGTQVPYTFGQGTKLEIKRTVAAPSVFIFPPSDEQLKSGTASVVCLLNNFYPREAKVQWKVDNALQSGNSQESVTEQDSKDSTYSLSSTLTLSKADYEKHKVYACEVTHQGLSSPVTKSFNRGEC
notes: one-arm antibody

KD ratio (KD of CE115HA000/KD of altered form): 0.98
B4: CE115HA000 G98S (antibody, human IgG1, kappa, L234A L235A, N297A, name in Kabat numbering)
heavy: B2 heavy with G104S, D108G
chain: B2 chain
light: B2 light
notes: one-arm antibody

KD ratio (KD of CE115HA000/KD of altered form): 4.69
B6: CE115HA000 G98R (antibody, human IgG1, kappa, L234A L235A, N297A, name in Kabat numbering)
heavy: B2 heavy with G104R, D108G
chain: B2 chain
light: B2 light
notes: one-arm antibody

KD ratio (KD of CE115HA000/KD of altered form): 4.85
B8: CE115HA000 G98K (antibody, human IgG1, kappa, L234A L235A, N297A, name in Kabat numbering)
heavy: B2 heavy with G104K, D108G
chain: B2 chain
light: B2 light
notes: one-arm antibody

KD ratio (KD of CE115HA000/KD of altered form): 0.93
B10: CE115HA000 G98T (antibody, human IgG1, kappa, L234A L235A, N297A, name in Kabat numbering)
heavy: B2 heavy with G104T, D108G
chain: B2 chain
light: B2 light
notes: one-arm antibody

KD ratio (KD of CE115HA000/KD of altered form): 4.37
B11: CE115HA000 G100bF (antibody, human IgG1, kappa, L234A L235A, N297A, name in Kabat numbering)
heavy: B2 heavy with D108F
chain: B2 chain
light: B2 light
notes: one-arm antibody

KD ratio (KD of CE115HA000/KD of altered form): 15400
B12: CE115HA000 H35R (antibody, human IgG1, kappa, L234A L235A, N297A, name in Kabat numbering)
heavy: B2 heavy with H35R, D108G
chain: B2 chain
light: B2 light
notes: one-arm antibody

KD ratio (KD of CE115HA000/KD of altered form): 2.88
B14: CE115HA000 H35N (antibody, human IgG1, kappa, L234A L235A, N297A, name in Kabat numbering)
heavy: B2 heavy with H35N, D108G
chain: B2 chain
light: B2 light
notes: one-arm antibody

KD ratio (KD of CE115HA000/KD of altered form): 3.98
B20: CE115HA000 H35M (antibody, human IgG1, kappa, L234A L235A, N297A, name in Kabat numbering)
heavy: B2 heavy with H35M, D108G
chain: B2 chain
light: B2 light
notes: one-arm antibody

KD ratio (KD of CE115HA000/KD of altered form): 4.4
B23: CE115HA000 H35T (antibody, human IgG1, kappa, L234A L235A, N297A, name in Kabat numbering)
heavy: B2 heavy with H35T, D108G
chain: B2 chain
light: B2 light
notes: one-arm antibody

KD ratio (KD of CE115HA000/KD of altered form): 4.8
B26: CE115HA000 H35Q (antibody, human IgG1, kappa, L234A L235A, N297A, name in Kabat numbering)
heavy: B2 heavy with H35Q, D108G
chain: B2 chain
light: B2 light
notes: one-arm antibody

KD ratio (KD of CE115HA000/KD of altered form): 0.61
B27: CE115HA000 G65E (antibody, human IgG1, kappa, L234A L235A, N297A, name in Kabat numbering)
heavy: B2 heavy with G68E, D108G
chain: B2 chain
light: B2 light
notes: one-arm antibody

KD ratio (KD of CE115HA000/KD of altered form): 69
B32: CE115HA000 H35D (antibody, human IgG1, kappa, L234A L235A, N297A, name in Kabat numbering)
heavy: B2 heavy with H35D, D108G
chain: B2 chain
light: B2 light
notes: one-arm antibody

KD ratio (KD of CE115HA000/KD of altered form): 50.4
B33: CE115HA000 H35W (antibody, human IgG1, kappa, L234A L235A, N297A, name in Kabat numbering)
heavy: B2 heavy with H35W, D108G
chain: B2 chain
light: B2 light
notes: one-arm antibody

More lines, now with the values behind:

B1: CE115HA000 G65D (antibody, human IgG1, kappa, L234A L235A, N297A, name in Kabat numbering)
heavy: B2 heavy with G68D, D108G
chain: B2 chain
light: B2 light
notes: one-arm antibody
KD ratio (KD of CE115HA000/KD of altered form): 0.61

B3: CE115HA000 G98P (antibody, human IgG1, kappa, L234A L235A, N297A, name in Kabat numbering)
heavy: B2 heavy with G104P, D108G
chain: B2 chain
light: B2 light
notes: one-arm antibody
KD ratio (KD of CE115HA000/KD of altered form): 0.88

B5: CE115HA000 G100bS (antibody, human IgG1, kappa, L234A L235A, N297A, name in Kabat numbering)
heavy: B2 heavy with D108S
chain: B2 chain
light: B2 light
notes: one-arm antibody
KD ratio (KD of CE115HA000/KD of altered form): 1.25

B7: CE115HA000 H35L (antibody, human IgG1, kappa, L234A L235A, N297A, name in Kabat numbering)
heavy: B2 heavy with H35L, D108G
chain: B2 chain
light: B2 light
notes: one-arm antibody
KD ratio (KD of CE115HA000/KD of altered form): 4.8

B9: CE115HA000 H35V (antibody, human IgG1, kappa, L234A L235A, N297A, name in Kabat numbering)
heavy: B2 heavy with H35V, D108G
chain: B2 chain
light: B2 light
notes: one-arm antibody
KD ratio (KD of CE115HA000/KD of altered form): 28.1

B13: CE115HA000 G98D (antibody, human IgG1, kappa, L234A L235A, N297A, name in Kabat numbering)
heavy: B2 heavy with G104D, D108G
chain: B2 chain
light: B2 light
notes: one-arm antibody
KD ratio (KD of CE115HA000/KD of altered form): 2.36

B15: CE115HA000 H35I (antibody, human IgG1, kappa, L234A L235A, N297A, name in Kabat numbering)
heavy: B2 heavy with H35I, D108G
chain: B2 chain
light: B2 light
notes: one-arm antibody
KD ratio (KD of CE115HA000/KD of altered form): 7.23

B16: CE115HA000 H35F (antibody, human IgG1, kappa, L234A L235A, N297A, name in Kabat numbering)
heavy: B2 heavy with H35F, D108G
chain: B2 chain
light: B2 light
notes: one-arm antibody
KD ratio (KD of CE115HA000/KD of altered form): 53.6

B17: CE115HA000 G98Q (antibody, human IgG1, kappa, L234A L235A, N297A, name in Kabat numbering)
heavy: B2 heavy with G104Q, D108G
chain: B2 chain
light: B2 light
notes: one-arm antibody
KD ratio (KD of CE115HA000/KD of altered form): 1.04

B18: CE115HA000 G98A (antibody, human IgG1, kappa, L234A L235A, N297A, name in Kabat numbering)
heavy: B2 heavy with G104A, D108G
chain: B2 chain
light: B2 light
notes: one-arm antibody
KD ratio (KD of CE115HA000/KD of altered form): 0.98

B19: CE115HA000 G100bL (antibody, human IgG1, kappa, L234A L235A, N297A, name in Kabat numbering)
heavy: B2 heavy with D108L
chain: B2 chain
light: B2 light
notes: one-arm antibody
KD ratio (KD of CE115HA000/KD of altered form): 5.84

B21: CE115HA000 H35K (antibody, human IgG1, kappa, L234A L235A, N297A, name in Kabat numbering)
heavy: B2 heavy with H35K, D108G
chain: B2 chain
light: B2 light
notes: one-arm antibody
KD ratio (KD of CE115HA000/KD of altered form): 14.4

B22: CE115HA000 G98H (antibody, human IgG1, kappa, L234A L235A, N297A, name in Kabat numbering)
heavy: B2 heavy with G104H, D108G
chain: B2 chain
light: B2 light
notes: one-arm antibody
KD ratio (KD of CE115HA000/KD of altered form): 1.14

B24: CE115HA000 G98Y (antibody, human IgG1, kappa, L234A L235A, N297A, name in Kabat numbering)
heavy: B2 heavy with G104Y, D108G
chain: B2 chain
light: B2 light
notes: one-arm antibody
KD ratio (KD of CE115HA000/KD of altered form): 2.75

B25: CE115HA000 H35S (antibody, human IgG1, kappa, L234A L235A, N297A, name in Kabat numbering)
heavy: B2 heavy with H35S, D108G
chain: B2 chain
light: B2 light
notes: one-arm antibody
KD ratio (KD of CE115HA000/KD of altered form): 2.93

B28: CE115HA000 H35G (antibody, human IgG1, kappa, L234A L235A, N297A, name in Kabat numbering)
heavy: B2 heavy with H35G, D108G
chain: B2 chain
light: B2 light
notes: one-arm antibody
KD ratio (KD of CE115HA000/KD of altered form): 45.8

B29: CE115HA000 H35E (antibody, human IgG1, kappa, L234A L235A, N297A, name in Kabat numbering)
heavy: B2 heavy with H35E, D108G
chain: B2 chain
light: B2 light
notes: one-arm antibody
KD ratio (KD of CE115HA000/KD of altered form): 70.3

B30: CE115HA000 G100bE (antibody, human IgG1, kappa, L234A L235A, N297A, name in Kabat numbering)
heavy: B2 heavy with D108E
chain: B2 chain
light: B2 light
notes: one-arm antibody
KD ratio (KD of CE115HA000/KD of altered form): 7.29

B31: CE115HA000 G100bY (antibody, human IgG1, kappa, L234A L235A, N297A, name in Kabat numbering)
heavy: B2 heavy with D108Y
chain: B2 chain
light: B2 light
notes: one-arm antibody
KD ratio (KD of CE115HA000/KD of altered form): 51.4
